According to paper PMC7959842 (2021):
Numbering of substitutions follows the chain as printed.

B1: FHR-1 (factor H-related protein 1, FHR-1*B, wild-type) (natural protein)
chain: EATFCDFPKINHGILYDEEKYKPFSQVPTGEVFYYSCEYNFVSPSKSFWTRITCTEEGWSPTPKCLRLCFFPFVENGHSESSGQTHLEGDTVQIICNTGYRLQNNENNISCVERGWSTPPKCRSTDTSCVNPPTVQNAYIVSRQMSKYPSGERVRYQCRSPYEMFGDEEVMCLNGNWTEPPQCKDSTGKCGPPPPIDNGDITSFPLSVYAPASSVEYQCQNLYQLEGNKRITCRNGQWSEPPKCLHPCVISREIMENYNIALRWTAKQKLYLRTGESAEFVCKRGYRLSSRSHTLRTTCWDGKLEYPTCAKR
B2: FH18-20 (domain or fragment)
chain: TSCVNPPTVQNAYIVSRQMSKYPSGERVRYQCRSPYEMFGDEEVMCLNGNWTEPPQCKDSTGKCGPPPPIDNGDITSFPLSVYAPASSVEYQCQNLYQLEGNKRITCRNGQWSEPPKCLHPCVISREIMENYNIALRWTAKQKLYSRTGESVEFVCKRGYRLSSRSHTLRTTCWDGKLEYPTCAKR
B3: FH18-20(LA) (domain or fragment)
chain: B2 chain with S146L, V152A
B4: FH18-20(LV) (domain or fragment)
chain: B2 chain with S146L
B5: FH18-20(SA) (domain or fragment)
chain: B2 chain with V152A

target: C3b (UniProt P01024 749-1663; P01024 749-1663, biotin (EZ-Link Maleimide-PEG2-Biotin, after 1 mM DTT) where immobilised on streptavidin chips; none where amine-coupled); test: SPR; biotin-coupled C3b
Sequence (P01024 23-667, chain 1 of 2): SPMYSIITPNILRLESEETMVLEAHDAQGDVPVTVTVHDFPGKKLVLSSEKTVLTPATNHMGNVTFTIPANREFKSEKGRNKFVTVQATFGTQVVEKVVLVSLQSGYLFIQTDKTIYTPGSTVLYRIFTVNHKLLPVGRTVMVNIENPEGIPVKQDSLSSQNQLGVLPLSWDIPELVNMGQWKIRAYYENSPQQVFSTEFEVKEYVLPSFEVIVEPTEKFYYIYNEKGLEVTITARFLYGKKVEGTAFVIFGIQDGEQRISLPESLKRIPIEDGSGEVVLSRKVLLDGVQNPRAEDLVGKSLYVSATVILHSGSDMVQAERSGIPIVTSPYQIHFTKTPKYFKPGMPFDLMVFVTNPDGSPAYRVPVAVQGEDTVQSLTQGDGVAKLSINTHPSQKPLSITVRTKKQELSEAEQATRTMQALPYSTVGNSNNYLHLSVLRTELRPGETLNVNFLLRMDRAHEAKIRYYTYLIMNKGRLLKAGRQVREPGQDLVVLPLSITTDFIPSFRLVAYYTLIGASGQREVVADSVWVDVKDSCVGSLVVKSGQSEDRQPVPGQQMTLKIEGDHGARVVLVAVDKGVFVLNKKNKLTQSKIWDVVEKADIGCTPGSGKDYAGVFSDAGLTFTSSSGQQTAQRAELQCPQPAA
Sequence (P01024 749-1663, chain 2 of 2): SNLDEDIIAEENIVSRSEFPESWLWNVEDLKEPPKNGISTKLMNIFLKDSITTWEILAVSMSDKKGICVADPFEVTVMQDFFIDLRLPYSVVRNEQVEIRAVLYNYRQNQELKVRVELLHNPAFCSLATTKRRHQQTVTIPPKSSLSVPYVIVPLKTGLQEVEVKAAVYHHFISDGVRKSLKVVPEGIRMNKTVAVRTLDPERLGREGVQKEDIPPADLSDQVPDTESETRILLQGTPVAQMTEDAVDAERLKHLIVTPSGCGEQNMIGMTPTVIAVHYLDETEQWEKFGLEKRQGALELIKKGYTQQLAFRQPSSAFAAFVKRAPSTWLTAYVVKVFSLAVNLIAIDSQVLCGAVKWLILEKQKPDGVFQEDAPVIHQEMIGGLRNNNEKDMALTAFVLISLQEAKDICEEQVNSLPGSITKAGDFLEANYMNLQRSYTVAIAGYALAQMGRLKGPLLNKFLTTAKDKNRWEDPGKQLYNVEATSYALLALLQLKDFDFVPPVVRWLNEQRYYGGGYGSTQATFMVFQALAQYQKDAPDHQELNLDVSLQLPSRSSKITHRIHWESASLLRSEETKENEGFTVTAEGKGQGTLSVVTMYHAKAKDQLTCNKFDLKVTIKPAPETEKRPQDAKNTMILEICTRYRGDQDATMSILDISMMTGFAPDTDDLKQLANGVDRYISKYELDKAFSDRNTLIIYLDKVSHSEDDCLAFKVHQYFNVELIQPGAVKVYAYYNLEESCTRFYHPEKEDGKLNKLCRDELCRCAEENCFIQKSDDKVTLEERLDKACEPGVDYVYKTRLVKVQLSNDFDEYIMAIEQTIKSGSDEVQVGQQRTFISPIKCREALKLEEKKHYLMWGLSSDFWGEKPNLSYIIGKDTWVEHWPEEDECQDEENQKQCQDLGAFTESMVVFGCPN

Kd | Binder
0.6 µM | B1
9.9 µM | B2
5.8 µM | B3
5.6 µM | B4
10 µM | B5
